B1: Tumor necrosis factor alpha-induced protein 3 (Homo sapiens), P21580 (parent)
chain: MAEQVLPQALYLSNMRKAVKIRERTPEDIFKPTNGIIHHFKTMHRYTLEMFRTCQFCPQFREIIHKALIDRNIQATLESQKKLNWCREVRKLVALKTNGDGNCLMHATSQYMWGVQDTDLVLRKALFSTLKETDTRNFKFRWQLESLKSQEFVETGLCYDTRNWNDEWDNLIKMASTDTPMARSGLQYNSLEEIHIFVLCNILRRPIIVISDKMLRSLESGSNFAPLKVGGIYLPLHWPAQECYRYPIVLGYDSHHFVPLVTLKDSGPEIRAVPLVNRDRGRFEDLKVHFLTDPENEMKEKLLKEYLMVIEIPVQGWDHGTTHLINAAKLDEANLPKEINLVDDYFELVQHEYKKWQENSEQGRREGHAQNPMEPSVPQLSLMDVKCETPNCPFFMSVNTQPLCHECSERRQKNQNKLPKLNSKPGPEGLPGMALGASRGEAYEPLAWNPEESTGGPHSAPPTAPSPFLFSETTAMKCRSPGCPFTLNVQHNGFCERCHNARQLHASHAPDHTRHLDPGKCQACLQDVTRTFNGICSTCFKRTTAEASSSLSTSLPPSCHQRSKSDPSRLVRSPSPHSCHRAGNDAPAGCLSQAARTPGDRTGTSKCRKAGCVYFGTPENKGFCTLCFIEYRENKHFAAASGKVSPTASRFQNTIPCLGRECGTLGSTMFEGYCQKCFIEAQNQRFHEAKRTEEQLRSSQRRDVPRTTQSTSRPKCARASCKNILACRSEELCMECQHPNQRMGPGAHRGEPAPEDPPKQRCRAPACDHFGNAKCNGYCNECFQFKQMYG

Variants of: B1
Details: with ATG16L1, Q676U5-1
Chain of ATG16L1, Q676U5-1 (Q676U5 whole entry): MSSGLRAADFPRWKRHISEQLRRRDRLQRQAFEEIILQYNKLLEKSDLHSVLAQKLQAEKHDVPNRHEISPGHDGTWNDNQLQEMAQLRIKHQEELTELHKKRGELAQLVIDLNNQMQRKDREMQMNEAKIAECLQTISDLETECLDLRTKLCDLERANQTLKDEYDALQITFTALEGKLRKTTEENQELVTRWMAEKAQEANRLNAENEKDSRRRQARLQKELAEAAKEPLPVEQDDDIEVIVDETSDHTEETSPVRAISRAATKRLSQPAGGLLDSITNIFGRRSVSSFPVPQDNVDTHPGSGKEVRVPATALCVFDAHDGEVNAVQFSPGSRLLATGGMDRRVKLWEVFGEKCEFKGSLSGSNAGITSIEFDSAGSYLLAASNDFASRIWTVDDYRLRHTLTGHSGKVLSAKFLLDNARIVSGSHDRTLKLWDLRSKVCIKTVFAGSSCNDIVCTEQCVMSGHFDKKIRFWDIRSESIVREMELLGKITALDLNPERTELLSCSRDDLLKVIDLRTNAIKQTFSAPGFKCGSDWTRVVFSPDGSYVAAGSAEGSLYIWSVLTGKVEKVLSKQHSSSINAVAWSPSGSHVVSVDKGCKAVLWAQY

effect of a mutation on the interaction | Variant
with no effect | F257A;L260A
with no effect | Y246A;V249A
with no effect | Y233A;L236A

The remaining lines, values behind:

Variant | effect of a mutation on the interaction
F224A;L227A | with no effect
F127A;L130A | with no effect
A125V | with no effect
W168A;L171A | with no effect
Y188A;L191A | with no effect
F127C | with no effect

Source: IntAct's records for PubMed 31015422
